Where two headings read alike, the source gives them in different places.
Assays:
Experiment in all cases: BLI
[1] = target: T1, human FcRIIA protein (MednaBio, E1033) (human, UniProt P12318 34-218, limits assumed)
T1 construct: Bought; also called FcγRIIA
T1 sequence (looked up): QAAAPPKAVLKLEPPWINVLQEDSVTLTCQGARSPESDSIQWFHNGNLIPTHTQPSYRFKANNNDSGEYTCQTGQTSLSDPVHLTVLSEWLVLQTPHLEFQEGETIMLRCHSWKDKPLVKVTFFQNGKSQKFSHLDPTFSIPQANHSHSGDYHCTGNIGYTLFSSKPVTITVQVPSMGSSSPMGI
Method: (§1) These IgG mutants were tested for binding to a panel of human Fc receptors (FcRs), including FcRn, using the Octet Red96 System (ForteBio, Model #Red96). Human FcR proteins were purchased commercially (FcRn, MednaBio, E1032; FcRI, MednaBio, E1031; FcRIIA, MednaBio, E1033; FcRIIB/C, MednaBio, E1034; FcRIIIA-F158, MednaBio, E1036; FcRIIIA-V158, MednaBio, E1035; FcRIIIB, MednaBio, E1037). All Fey receptor assays were performed at pH 7.2; all FcRn assays were performed at pH 6. The Fey receptors were loaded onto anti-penta-HIS1K (ForteBio, Cat #18-5122) biosensors at a concentration of 20 μg/mL. The loaded biosensors was then be dipped into an 8-point 1:3 dilution series of the test IgG molecules (including controls and the mutants described herein) in PBS with 0.1% BSA, 0.02% Tween-20 (pH 7.2) at a starting concentration of 300 nM. Kinetic analysis was performed using a 1:1 binding model and global fitting.

[2] = target: T2, human FcRn protein (MednaBio, E1032) (human, UniProt P55899 24-297; P61769 21-119)
T2 construct: Bought; assays at pH 6
Method: as §1

[3] = target: T1, human FcRIIA protein (MednaBio, E1033); remark: listed apart in the source
In short: (§2)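 Binding was measured by biolayer interferometry on an Octet Red96 System. Commercial human Fc receptor proteins were loaded at 20 μg/mL onto anti-penta-HIS biosensors, which were then dipped into an 8-point 1:3 dilution series of test IgG starting at 300 nM in PBS with 0.1% BSA and 0.02% Tween-20, at pH 7.2 for Fcγ receptors and pH 6 for FcRn. Kd, kon and koff were obtained by global fitting, with data fitted to a 1:1 binding model.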

[4] = target: T2, human FcRn protein (MednaBio, E1032); remark: listed apart in the source
In short: as §2

[5] = target: T1, human FcRIIA protein (MednaBio, E1033); remark: listed apart in the source
In short: as §2

[6] = target: T2, human FcRn protein (MednaBio, E1032); remark: listed apart in the source
In short: as §2

[7] = target: T1, human FcRIIA protein (MednaBio, E1033); remark: listed apart in the source
Method: as §1

[8] = target: T2, human FcRn protein (MednaBio, E1032); remark: listed apart in the source
Method: as §1

[9] = target: T1, human FcRIIA protein (MednaBio, E1033); remark: listed apart in the source
In short: as §2

[10] = target: T2, human FcRn protein (MednaBio, E1032); remark: listed apart in the source
In short: as §2

[11] = target: T1, human FcRIIA protein (MednaBio, E1033); remark: listed apart in the source
In short: as §2

[12] = target: T2, human FcRn protein (MednaBio, E1032); remark: listed apart in the source
In short: as §2

[13] = target: T3, human FcRI protein (MednaBio, E1031) (human, UniProt P12314 16-288, limits assumed)
T3 construct: Bought; loaded on anti-penta-HIS biosensors; also called FcγRI
In short: as §2

[14] = target: T4, human FcRIIIA-V158 protein (MednaBio, E1035) (human, UniProt P08637 17-208)
T4 construct: Bought; also called FcγRIIIA(V); FcgRIIIA(V)
In short: as §2

[15] = target: T5, human FcRIIB/C protein (MednaBio, E1034) (human, UniProt P31994 43-217, limits assumed)
T5 construct: Bought as FcRIIB/C; also called FcγRIIB; CD32B
T5 sequence (looked up): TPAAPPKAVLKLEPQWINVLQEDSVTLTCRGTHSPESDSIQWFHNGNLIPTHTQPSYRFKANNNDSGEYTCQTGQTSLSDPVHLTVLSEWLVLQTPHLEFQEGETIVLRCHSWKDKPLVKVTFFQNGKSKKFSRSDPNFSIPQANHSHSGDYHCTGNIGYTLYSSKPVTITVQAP
In short: as §2

[16] = target: T6, human FcRIIIA-F158 protein (MednaBio, E1036) (human, UniProt P08637 17-208)
T6 construct: Bought; also called FcγRIIIA(F)
In short: as §2

[17] = target: T7, human FcRIIIB protein (MednaBio, E1037) (human, UniProt O75015 17-200)
T7 construct: Bought; also called FcγRIIIB; FcgRIIIB
In short: as §2

[18] = target: T3, human FcRI protein (MednaBio, E1031); remark: listed apart in the source
In short: as §2

[19] = target: T5, human FcRIIB/C protein (MednaBio, E1034); remark: listed apart in the source
In short: as §2

[20] = target: T2, human FcRn protein (MednaBio, E1032); remark: listed apart in the source
In short: as §2

[21] = target: T1, human FcRIIA protein (MednaBio, E1033); remark: listed apart in the source
In short: as §2

T3 sequence (P12314 16-288 limits assumed): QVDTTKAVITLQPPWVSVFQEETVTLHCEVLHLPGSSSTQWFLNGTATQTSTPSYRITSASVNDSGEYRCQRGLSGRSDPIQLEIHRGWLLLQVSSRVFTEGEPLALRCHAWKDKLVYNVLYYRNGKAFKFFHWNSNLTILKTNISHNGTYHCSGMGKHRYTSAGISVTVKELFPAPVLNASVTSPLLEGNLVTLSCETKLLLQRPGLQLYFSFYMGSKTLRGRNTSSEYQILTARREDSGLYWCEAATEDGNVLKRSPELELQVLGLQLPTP
T2 sequence (P55899 24-297 limits assumed, form in doubt, chain 1 of 2): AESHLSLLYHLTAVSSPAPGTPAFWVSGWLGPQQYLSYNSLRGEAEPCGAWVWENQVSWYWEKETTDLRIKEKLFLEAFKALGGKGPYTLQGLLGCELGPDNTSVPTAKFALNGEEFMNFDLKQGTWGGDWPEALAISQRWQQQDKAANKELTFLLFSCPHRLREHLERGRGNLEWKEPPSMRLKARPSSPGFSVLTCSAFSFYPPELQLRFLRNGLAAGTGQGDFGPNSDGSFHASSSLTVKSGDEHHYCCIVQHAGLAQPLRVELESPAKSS
T2 sequence (P61769 21-119 limits assumed, form in doubt, chain 2 of 2): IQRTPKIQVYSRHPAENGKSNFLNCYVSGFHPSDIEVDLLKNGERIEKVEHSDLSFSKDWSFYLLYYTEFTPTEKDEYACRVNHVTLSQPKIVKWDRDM
T7 sequence (O75015 17-200 limits assumed): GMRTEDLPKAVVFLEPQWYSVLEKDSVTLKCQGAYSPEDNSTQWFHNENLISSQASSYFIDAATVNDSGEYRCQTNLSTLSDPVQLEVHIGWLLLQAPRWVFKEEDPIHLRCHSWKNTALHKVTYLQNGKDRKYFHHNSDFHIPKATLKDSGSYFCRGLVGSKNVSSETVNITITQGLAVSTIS
T6 sequence (P08637 17-208 limits assumed): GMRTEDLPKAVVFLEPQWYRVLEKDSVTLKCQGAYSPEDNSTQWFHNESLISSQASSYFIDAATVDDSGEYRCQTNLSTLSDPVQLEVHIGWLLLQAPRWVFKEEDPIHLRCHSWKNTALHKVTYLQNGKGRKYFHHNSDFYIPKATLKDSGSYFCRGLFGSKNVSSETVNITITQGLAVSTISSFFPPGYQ
T4 sequence (P08637 17-208 F176V): as the sequence (P08637 17-208 limits assumed) above, with F160V counted along it

B1: wild-type human IgG2 control (antibody)
heavy: EVQLVQSGAEVKKPGESLRISCKGSGYSFSTYWISWVRQMPGKGLEWMGKIYPGDSYTNYSPSFQGQVTISADKSISTAYLQWSSLKASDTAMYYCARGYGIFDYWGQGTLVTVSSASTKGPSVFPLAPCSRSTSESTAALGCLVKDYFPEPVTVSWNSGALTSGVHTFPAVLQSSGLYSLSSVVTVPSSNFGTQTYTCNVDHKPSNTKVDKTVERKCCVECPPCPAPPVAGPSVFLFPPKPKDTLMISRTPEVTCVVVDVSHEDPEVQFNWYVDGVEVHNAKTKPREEQFNSTFRVVSVLTVVHQDWLNGKEYKCKVSNKGLPAPIEKTISKTKGQPREPQVYTLPPSREEMTKNQVSLTCLVKGFYPSDIAVEWESNGQPENNYKTTPPMLDSDGSFFLYSKLTVDKSRWQQGNVFSCSVMHEALHNHYTQKSLSLSPGK
light: SYELTQPPSVSVSPGQTASITCSGDNIGDQYAHWYQQKPGQSPVLVIYQDKNRPSGIPERFSGSNSGNTATLTISGTQAMDEADYYCATYTGFGSLAVFGGGTKLTVLGQPKAAPSVTLFPPSSEELQANKATLVCLISDFYPGAVTVAWKADSSPVKAGVETTTPSKQSNNKYAASSYLSLTPEQWKSHRSYSCQVTHEGSTVEKTVAPTECS
notes: Control IgG
Q: What does the source list for B1?
A: Kd [1]: 89 nM; koff [1]: 0.039 s⁻¹; kon [1]: 440000 M⁻¹ s⁻¹; Kd [2]: 10 nM; koff [2]: 0.0099 s⁻¹; kon [2]: 990000 M⁻¹ s⁻¹; Kd [3]: 89 nM; koff [3]: 0.039 s⁻¹; kon [3]: 440000 M⁻¹ s⁻¹; Kd [4]: 10 nM; koff [4]: 0.0099 s⁻¹; kon [4]: 990000 M⁻¹ s⁻¹; Kd [5]: 89 nM; koff [5]: 0.039 s⁻¹; kon [5]: 440000 M⁻¹ s⁻¹; Kd [6]: 10 nM; koff [6]: 0.0099 s⁻¹; kon [6]: 990000 M⁻¹ s⁻¹; Kd [7]: 89 nM; koff [7]: 0.039 s⁻¹; kon [7]: 440000 M⁻¹ s⁻¹; Kd [8]: 10 nM; koff [8]: 0.0099 s⁻¹; kon [8]: 990000 M⁻¹ s⁻¹; Kd [9]: 89 nM; koff [9]: 0.039 s⁻¹; kon [9]: 440000 M⁻¹ s⁻¹; Kd [10]: 10 nM; koff [10]: 0.0099 s⁻¹; kon [10]: 990000 M⁻¹ s⁻¹; Kd [11]: 89 nM; koff [11]: 0.039 s⁻¹; kon [11]: 440000 M⁻¹ s⁻¹; Kd [12]: 10 nM; koff [12]: 0.0099 s⁻¹; kon [12]: 990000 M⁻¹ s⁻¹

B2: anti-CD137 IgG4 with Fc variant G4m8 (antibody)
heavy: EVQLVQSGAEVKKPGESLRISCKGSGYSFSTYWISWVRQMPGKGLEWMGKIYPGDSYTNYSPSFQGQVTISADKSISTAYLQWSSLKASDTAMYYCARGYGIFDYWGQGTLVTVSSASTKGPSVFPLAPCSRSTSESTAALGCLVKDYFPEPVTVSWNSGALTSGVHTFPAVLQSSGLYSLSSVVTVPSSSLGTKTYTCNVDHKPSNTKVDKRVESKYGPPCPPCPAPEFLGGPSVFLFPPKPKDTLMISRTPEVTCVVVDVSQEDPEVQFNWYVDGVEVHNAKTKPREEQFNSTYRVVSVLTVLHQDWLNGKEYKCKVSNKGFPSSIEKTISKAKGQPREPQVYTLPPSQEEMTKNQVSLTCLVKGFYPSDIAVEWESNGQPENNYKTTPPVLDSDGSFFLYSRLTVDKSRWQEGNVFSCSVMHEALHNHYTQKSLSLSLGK
light: SYELTQPPSVSVSPGQTASITCSGDNIGDQYAHWYQQKPGQSPVLVIYQDKNRPSGIPERFSGSNSGNTATLTISGTQAMDEADYYCATYTGFGSLAVFGGGTKLTVLGQPKAAPSVTLFPPSSEELQANKATLVCLISDFYPGAVTVAWKADSSPVKAGVETTTPSKQSNNKYAASSYLSLTPEQWKSHRSYSCQVTHEGSTVEKTVAPTECS
notes: copies: 2 + 2
Q: How did the Kd [13] turn out when B2 was run?
A: 3.8 nM

Q: What about the koff [13] of the same binder?
A: 0.0028 s⁻¹

Q: And the kon [13]?
A: 720000 M⁻¹ s⁻¹

Q: Does B2 bind [14]?
A: no binding (tested: 300 nM)

Q: What about the Kd [15] of the same binder?
A: 89 nM

Q: And the koff [15]?
A: 0.048 s⁻¹

Q: And the kon [15]?
A: 530000 M⁻¹ s⁻¹

Q: Does B2 bind [16]?
A: no binding (tested: 300 nM)

Q: Does B2 bind [17]?
A: no binding (tested: 300 nM)

Q: What about the Kd [3] of the same binder?
A: 260 nM

Q: What about the koff [3] of the same binder?
A: 0.1 s⁻¹

Q: What about the kon [3] of the same binder?
A: 390000 M⁻¹ s⁻¹

Q: And the Kd [4]?
A: 20 nM

Q: What about the koff [4] of the same binder?
A: 0.012 s⁻¹

Q: What about the kon [4] of the same binder?
A: 610000 M⁻¹ s⁻¹

B3: anti-CD137 IgG4 with Fc variant G4m27 (antibody)
heavy: EVQLVQSGAEVKKPGESLRISCKGSGYSFSTYWISWVRQMPGKGLEWMGKIYPGDSYTNYSPSFQGQVTISADKSISTAYLQWSSLKASDTAMYYCARGYGIFDYWGQGTLVTVSSASTKGPSVFPLAPCSRSTSESTAALGCLVKDYFPEPVTVSWNSGALTSGVHTFPAVLQSSGLYSLSSVVTVPSSSLGTKTYTCNVDHKPSNTKVDKRVESKYGPPCPPCPAPEFLGPSVFLFPPKPKDTLMISRTPEVTCVVVDVEQEDPEVQFNWYVDGVEVHNAKTKPREEQFNSTYRVVSVLTVLHQDWLNGKEYKCKVSNKGLPSSIEKTISKAKGQPREPQVYTLPPSQEEMTKNQVSLTCLVKGFYPSDIAVEWESNGQPENNYKTTPPVLDSDGSFFLYSRLTVDKSRWQEGNVFSCSVMHEALHNHYTQKSLSLSLGK
light: SYELTQPPSVSVSPGQTASITCSGDNIGDQYAHWYQQKPGQSPVLVIYQDKNRPSGIPERFSGSNSGNTATLTISGTQAMDEADYYCATYTGFGSLAVFGGGTKLTVLGQPKAAPSVTLFPPSSEELQANKATLVCLISDFYPGAVTVAWKADSSPVKAGVETTTPSKQSNNKYAASSYLSLTPEQWKSHRSYSCQVTHEGSTVEKTVAPTECS
notes: copies: 2 + 2
Q: What does the source list for B3?
A: Kd [18]: 66 nM; koff [18]: 0.025 s⁻¹; kon [18]: 370000 M⁻¹ s⁻¹; Kd [19]: 310 nM; koff [19]: 0.039 s⁻¹; kon [19]: 130000 M⁻¹ s⁻¹; Kd [20]: 23 nM; koff [20]: 0.01 s⁻¹; kon [20]: 450000 M⁻¹ s⁻¹

B4: anti-CD137 IgG4 with Fc variant G4m25 (antibody)
heavy: EVQLVQSGAEVKKPGESLRISCKGSGYSFSTYWISWVRQMPGKGLEWMGKIYPGDSYTNYSPSFQGQVTISADKSISTAYLQWSSLKASDTAMYYCARGYGIFDYWGQGTLVTVSSASTKGPSVFPLAPCSRSTSESTAALGCLVKDYFPEPVTVSWNSGALTSGVHTFPAVLQSSGLYSLSSVVTVPSSSLGTKTYTCNVDHKPSNTKVDKRVESKYGPPCPPCPAPEFLGPSVFLFPPKPKDTLMISRTPEVTCVVVDVSQEDPEEQFNWYVDGVEVHNAKTKPREEQFNSTYRVVSVLTVLHQDWLNGKEYKCKVSNKGLPSSIEKTISKAKGQPREPQVYTLPPSQEEMTKNQVSLTCLVKGFYPSDIAVEWESNGQPENNYKTTPPVLDSDGSFFLYSRLTVDKSRWQEGNVFSCSVMHEALHNHYTQKSLSLSLGK
light: SYELTQPPSVSVSPGQTASITCSGDNIGDQYAHWYQQKPGQSPVLVIYQDKNRPSGIPERFSGSNSGNTATLTISGTQAMDEADYYCATYTGFGSLAVFGGGTKLTVLGQPKAAPSVTLFPPSSEELQANKATLVCLISDFYPGAVTVAWKADSSPVKAGVETTTPSKQSNNKYAASSYLSLTPEQWKSHRSYSCQVTHEGSTVEKTVAPTECS
notes: copies: 2 + 2
Q: Which Kd [18] does the source give for B4 here?
A: 46 nM

Q: And the koff [18]?
A: 0.017 s⁻¹

Q: What about the kon [18] of the same binder?
A: 380000 M⁻¹ s⁻¹

Q: What about the Kd [19] of the same binder?
A: 240 nM

Q: And the koff [19]?
A: 0.03 s⁻¹

Q: What about the kon [19] of the same binder?
A: 130000 M⁻¹ s⁻¹

Q: What about the Kd [21] of the same binder?
A: 660 nM

Q: What about the koff [21] of the same binder?
A: 0.038 s⁻¹

Q: And the kon [21]?
A: 57000 M⁻¹ s⁻¹

Q: And the Kd [20]?
A: 19 nM

Q: And the koff [20]?
A: 0.009 s⁻¹

Q: And the kon [20]?
A: 480000 M⁻¹ s⁻¹
